Biological target: 40 S ribosomal subunit, wild type (RDN+) (S. cerevisiae (endogenous in NOY908)) (UniProt P32905)
Assay: co-sedimentation

Sequence of UniProt P32905 (P32905 whole entry, looked up, tested part not stated): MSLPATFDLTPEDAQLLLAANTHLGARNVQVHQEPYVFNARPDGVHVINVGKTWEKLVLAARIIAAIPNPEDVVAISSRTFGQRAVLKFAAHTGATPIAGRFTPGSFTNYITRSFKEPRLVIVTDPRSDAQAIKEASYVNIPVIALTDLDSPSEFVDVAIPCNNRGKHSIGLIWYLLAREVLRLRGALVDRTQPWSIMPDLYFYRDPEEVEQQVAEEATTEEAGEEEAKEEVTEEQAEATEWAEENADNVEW

Percent of the factor loaded on free 40 S subunits, < 5%:
eIF5 (from UniProt P38431 1-405) (natural protein)
eIF2 (heterotrimeric factor) (from UniProt P20459 1-304; P09064 1-285; P32481 1-527) (complex)
eIF3 (from UniProt P38249 1-964; Q04067 1-274) (complex)
